PMC7476758, “Underground isoleucine biosynthesis pathways in E. coli” (eLife, 2020)

Experiments:
N[C@@H](CO)C(=O)O = assay: Michaelis-Menten kinetics of purified mutant enzyme, DTNB assay (KM); format: biochemical, Escherichia coli; conditions: mutation far from the active site
[1] = system: CC(=O)SCCNC(=O)CCNC(=O)[C@H](O)C(C)(C)COP(=O)(O)OP(=O)(O)OC[C@H]1O[C@@H](n2cnc3c(N)ncnc32)[C@H](O)[C@@H]1OP(=O)(O)O; assay: Michaelis-Menten kinetics of purified mutant enzyme, DTNB assay of released CoA (KM); format: biochemical, Escherichia coli; conditions: mutation far from the active site

## serine acetyltransferase (CysE) (Escherichia coli K-12; A33T)
N[C@@H](CO)C(=O)O
  Km: 500 ± 200 µM
[1]
  Km: 5000 ± 2000 µM
